Measurements reported in patent publication US20060269550A1 (published 2006).
Where no end group is shown, it is not given here. The star is where a group is joined. Octanoyl = CCCCCCCC(=O)*

T1: rat ghrelin (full length, acylated) (rat, UniProt Q9QYH7 24-51, acylated (group and position not restated for the rat peptide))
T1 construct: mature; the assay used the full-length ghrelin peptide
T1 peptide (looked up): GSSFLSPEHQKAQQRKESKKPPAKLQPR

B1: Ghrelin (1-8), the first eight amino acids of human ghrelin acylated, via an ester linkage, with an octanoyl group on the serine at position 3 (peptide)
peptide: GSS(Octanoyl)FLSPE
notes: also called human ghrelin amino acids 1-8 acylated with octanoic acid
B2: anti-hGhrelin Fab 2291 (Fab, V domains shown)
VH: EIQLQQSGAELMKPGASVKLSCKATGYTFTGYWIEWAKQRPGHGLEWIGEILPGSGSTNYNEKFKGKATFTADTSSNTANMQLSSLTTEDSAIYYCARYPQFRLRRERIAYWGQGTLVTVSV
VL: DLVLTQSPASLAVSLGQRATISCRASKSVSTSGYSYMHWYQQKPGQPPKLLIYLASNLEPGVPARFSGSGSGTDFTLNIHPVEEEDAATYYCQHSRELPYTFGAGTKLELKR
notes: Mouse Fab, kappa light chain

Experiments:
anti-hGhrelin Fab 2291 [1] = molecular target: B2; assay: competitive ELISA; competitor at 0.2 µg/ml preincubated with Fab 2291 0.1 µg/ml, OD of Fab bound to BSA-hGhrelin wells
Protocol: (§1) Each well of a 96-well plate was coated with 60 μl BSA-hGhrelin antigen (i.e., BSA conjugated, full-length, acylated human ghrelin, 2 μg/ml in carbonate buffer, pH 9.6). The plate was incubated at 4° C. overnight. The wells were aspirated and washed twice with washing buffer (20 mM Tris-Cl, pH 7.4, 0.15 M NaCl, 0. 1% Tween 20). Compounds (i.e., human ghrelin or ghrelin analogs) were diluted into antibody solution. The antibody solution was mouse-anti-human ghrelin Fab. The ghrelin competitor concentration was varied as listed in Tables 2 and 3 below, but the Fab-concentration was kept constant at 0.1 μg/ml in blocking solution (10 mg/ml BSA in wash buffer). After a 1 hour incubation at room temperature, 50 μl of compound-antibody solution was added to BSA-hGhrelin coated wells in triplicate. The plates were incubated for 1 hour at room temperature. The wells were then washed three times with washing buffer.
(§2) Peroxidase-conjugated secondary antibody (50 μl goat anti-mouse kappa HRP (Southern Biotech), diluted 1:2000 in blocking buffer) was added to each well and incubated for 1 hour at room temperature. The wells were then washed 4 times with washing buffer. Fifty microliters of chromogenic substrate (i.e., OPD substrate) was added to each well and allowed to develop at room temperature for 10 minutes. […] The absorbance of the wells was read at 490 nm. […]

anti-hGhrelin Fab 2291 [2] = molecular target: B2; assay: competitive ELISA; competitor at 5 µg/ml preincubated with Fab 2291 0.1 µg/ml, OD of Fab bound to BSA-hGhrelin wells
Protocol: as §1, §2

anti-hGhrelin Fab 2291 [3] = molecular target: B2; assay: competitive ELISA; competitor at 1 µg/ml preincubated with Fab 2291 0.1 µg/ml, OD of Fab bound to BSA-hGhrelin wells
Protocol: as §1, §2

[4] = molecular target: T2, full-length human ghrelin acylated with an octanoyl group on the serine at position 3 (human, n-octanoyl group on Ser 3); assay: SPR, BIAcore 2000, 25 C; Fab captured by goat anti-mouse kappa, ghrelin as analyte; koff/kon, average of three
T2 construct: also called hGhrelin; acylated hGhrelin
T2 sequence (peptide, as listed by the source): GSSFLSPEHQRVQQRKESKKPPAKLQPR
Protocol: (§3) The BIAcore® utilizes the optical properties of surface plasmon resonance to detect alterations in protein concentration of interacting molecules within a dextran biosensor matrix. Except where noted, all reagents and materials were purchased from BIAcore® AB (Upsala, Sweden). All measurements were performed at 25° C. Samples containing rat or human ghrelin (full length, acylated) were dissolved in HBS-EP buffer (150 mM sodium chloride, 3 mM EDTA, 0.005% (w/v) surfactant P-20, and 10 mM HEPES, pH 7.4). A capture antibody, goat anti-mouse Kappa (Southern Biotechnology, Inc), was immobilized onto flow cells using amine-coupling chemistry. Flow cells (1-4) were activated for 7 minutes with a 1:1 mixture of 0.1 M N-hydroxysuccinimide and 0.1 M 3-(N,N-dimethylamino)propyl-N-ethylcarbodiimide at a flow rate of 10 μl/min. Goat anti-mouse Kappa (30 μg/mL in 10 mM sodium acetate, pH 4.5) was manually injected over all 4 flow cells at a flow rate of 10 μL/min. The surface density was monitored and additional goat anti-mouse Kappa was injected if needed to individual cell until all flow cells reach a surface density of 4500-5000 response units (RU). Surfaces were blocked with a 7 minute injection of 1 M ethanolamine-HCl, pH 8.5(10 μL/min). To ensure complete removal of any noncovalently bound goat anti-mouse Kappa, 15 μL of 10 mM glycine, pH 1.5 was injected twice. Running buffer used for kinetic experiments contained 10 mM HEPES, pH 7.4, 150 mM NaCl, 0.005% P20.
(§4) Collection of kinetic binding data was performed at maximum flow rate (100 μL/min) and a low surface density to minimize mass transport effects.

[5] = molecular target: T1, rat ghrelin (full length, acylated); assay: SPR, BIAcore 2000, 25 C; Fab captured by goat anti-mouse kappa, rat ghrelin as analyte; koff/kon, average of three
Protocol: as §3, §4

[6] = molecular target: T2, full-length human ghrelin acylated with …; assay: cell-based or functional assay
[7] = molecular target: B1; assay: inferred by the filing from inhibition of the analog in the FLPR calcium assay

| Ave. OD (anti-hGhrelin Fab 2291 [1]) [OD] | Ave. OD (anti-hGhrelin Fab 2291 [2]) [OD] | Ave. OD (anti-hGhrelin Fab 2291 [3]) [OD] | Kd [4] [nM] | Kd [5] [nM] | IC50 (nM), FLPR calcium assay on AV12 cells expressing human GHS-R1a [6] [nM] | binding result [7] | Binder |
| --- | --- | --- | --- | --- | --- | --- | --- |
| 0.399 | 0.065 | 0.127 | – | – | – | – | B1 |
| – | – | – | 1.01 | 1.16 | 0.9 | binds | anti-hGhrelin Fab 2891 (Fab, V domains shown, Mouse Fab, kappa light chain) VH: EIQLQQSGAELMKPGASVKLSCKATGYTFTGYWIEWVKQRPGHGLEWIGEILPGSGSTNYNEKFKGKATFTADTSSNTANMQLSSLTTEDSAIYYCARYPQFRLRRERIAYWGQGTLVTVSV VL: DLVLTQSPASLAVSLGQRATISCRASKSVSTSGYSYMHWYQQKPGQPPKLLIYLASNLESGVPARFSGSGSGTDFTLNIHPVEEEDAATYYCQHSRELPYTFGAGTKLELKR |
| – | – | – | 3.38 | 5.42 | 1.9 | binds | anti-hGhrelin Fab 2211 (Fab, V domains shown, Mouse Fab, kappa light chain) VH: EIQLQQSGAELMRPGASVKLSCKATGYTFTGYWIEWVKQRPGHGLEWIGEILPGSGSTNYNEKFKGKATFTADTSSNTANMQLSSLTTEDSAIYYCARYPQFGLRRERIAYWGQGTLVTVSV VL: DLVLTQSPASLAVSLGQRATISCRASKSVSTSGYSYMHWYQQKPGQPPKLLIYLASNLESGVPARFSGSGSGTDFTLNIHPVEEEDAATYYCQHSRELPYTFGAGTKLELKR |
| – | – | – | 1.08 | 1.68 | 0.8 | binds | B2 |
| – | – | – | 1.04 | 1.14 | 1.1 | binds | anti-hGhrelin Fab 1111 (Fab, V domains shown, Mouse Fab from an Omniclonal library (immunised C57Bl/6 mice); kappa light chain (detected or captured with goat anti-mouse kappa)) VH: EIQLQQSGAELMKPGASVKLSCKATGYIFTGYWIEWVKQRPGHGLEWIGEILPGSGSTNYNEKFKGKATFTADTSSNTANMQLSSLTTEDSAIYYCARYPQFRLRRERIAYWGQGTLVTVSV VL: DLVLTQSPASLAVSLGQRATISCRASKSVSTSGYSYMHWYQQKPGQPPKLLIYLASNLESGVPARFSGSGSGTDFTLNIHPVEEEDAATYYCQHSRELPYTFGAGTKLELKR |
